Results taken from patent US12016898B2, “Compositions and uses of antimicrobial materials with tissue-compatible properties” (Amicrobe, Inc., priority 2012, dated 2024).

What was measured:
[1] = texture analysis profile (firmness, work of adhesion); type: physicochemical; settings: 1% (w/w) polypeptide and 1% (w/w) HEC in water
Excerpt: FIGS. 20A and 20B show A) firmness values for mixtures of 1% solutions of synthetic cationic polypeptides with 1% hydroxyethyl cellulose (HEC, Natrosol HHX) in water (FIG. 20A); and B) work of adhesion values for mixtures of 1% solutions of copolypeptides with 1% hydroxyethyl cellulose (HEC, Natrosol HHX) in water (FIG. 20B).
Values for 1% (w/w) polypeptide in water. b. Values for 1% polypeptide/1% HEC (w/w) in water. c. Interaction parameter: ΔF=Fmix(poly/HEC)−(Fpoly+FHEC). Where Fmix(poly/HEC)=firmness of 1% polypeptide/1% HEC, Fpoly=firmness of 1% polypeptide solution, and FHEC=firmness of 1% HEC (Natrosol HHX) in water. Similar treatment of data was performed for the work of adhesion interaction parameter.
A texture analysis profile has been used to determine the effects of block copolypeptide composition and hydrophobic enantiopurity on the mechanical properties of the block copolypeptide/HEC mixtures (FIGS. 20A and 20B). […] This corresponds to an interaction parameter value of 14.45 mN and an overall increase of over 170% over what would be expected from the additive contributions of the individual components. […] Hydrophobic block length was also shown to be influential.

P. aeruginosa biofilms = assay: in vitro P. aeruginosa biofilm assay; type: cell-based; settings: 0.1-20 mg/mL, 24 hour contact time
[2] = test system: S. epidermidis, P. aeruginosa (pig clinical isolate); assay: open-wound porcine treatment model; type: in vivo; settings: wounds contaminated, treated after 2 hrs, biopsied 4 hrs after treatment
Procedure: Each wound was contaminated with bacteria (S. epidermidis, P. aeruginosa (pig clinical isolate)). After 2 hrs, wounds were rinsed with saline and treated with 5 mL of test article or water. Test articles: K100(rac-L)20 (SEQ ID NO: 12) at 10, 2, 0.4 mg/mL, 10 mg/mL K100(rac-L)20 (SEQ ID NO: 12) and 30 mg/mL PEG 400 in water, and deionized water as a control. Gauze soaked in test article or water was placed on top of the wounds. Wounds were biopsied at 4 hrs after treatment.
Aqueous compositions that include mixtures of synthetic cationic polypeptides with two different polymers (polyethylene glycol 400 and hydroxyethyl cellulose) were both found to be effective in vivo. As depicted in FIG. 25, K100(rac-L)20 (SEQ ID NO: 12) was effective in an porcine open-wound treatment model alone and in combination with PEG 400. […] The aqueous compositions described herein can be used for any one or more treatments and/or applications, including but not limited to prevention of infections, treatment of infections, treatment for topical anti-infection, treatment for microbial decolonization, wound treatment, surgical site treatment, trauma treatment, burn treatment, treatment of diabetic foot ulcers, eye treatment, treatment of vaginal infections, treatment of urinary tract infections, hand sanitization, for coating prosthetic devices and/or implants, food preservation and solution preservation.

B1: K100(rac-L)20: synthetic cationic copolypeptide: lysine segment and shorter racemic hydrophobic leucine block (peptide)
chain: KKKKKKKKKKKKKKKKKKKKKKKKKKKKKKKKKKKKKKKKKKKKKKKKKKKKKKKKKKKKKKKKKKKKKKKKKKKKKKKKKKKKKKKKKKKKKKKKKKKKLLLLLLLLLLLLLLLLLLLL
modifications: racemic leucine block; K100(rac-L)20; rac-L (101)..(120)
- effect on adhesiveness / work of adhesion of mixing polypeptide with HEC [1]: no effect
- effect on firmness of mixing polypeptide with HEC [1]: no effect
- effectiveness against P. aeruginosa biofilms in vitro (P. aeruginosa biofilms): effective
- effectiveness in porcine open-wound treatment model [2]: effective

B2: K100L20: synthetic cationic copolypeptide: lysine segment and leucine segment (peptide)
chain: B1 chain
modifications: K100L20
- effect on adhesiveness / work of adhesion of mixing polypeptide with HEC [1]: antagonistic
- effect on firmness of mixing polypeptide with HEC [1]: increased firmness

B3: K100: lysine homopolypeptide (peptide)
chain: KKKKKKKKKKKKKKKKKKKKKKKKKKKKKKKKKKKKKKKKKKKKKKKKKKKKKKKKKKKKKKKKKKKKKKKKKKKKKKKKKKKKKKKKKKKKKKKKKKKK
modifications: K100
notes: lysine homopolypeptide
- effect on adhesiveness / work of adhesion of mixing polypeptide with HEC [1]: failed to enhance
- effect on firmness of mixing polypeptide with HEC [1]: failed to enhance
